Measurements reported in article PMC5384750 (PLoS ONE, 2017).

Biological target: T1, recombinant IDE (rIDE) (Rattus norvegicus, UniProt P35559)
T1 construct: purchased Calbiochem
Assay: In vitro degradation by recombinant IDE (extent, kinetics, cleavage sites)
Assay type: biochemical
Details: 10 ng insulin-FITC, 30 min, 37°C; fluorescence; four independent experiments
Protocol: (A) 10 ng of sp6BY or insulin-FITC were incubated with indicated amounts of rIDE for 30 min at 37°C. Remaining amounts of sp6BY and insulin-FITC were detected by measurement of fluorescence excitation. (B) Results of four independently performed experiments. Values represent the arithmetic mean ± SD. (C) Increasing concentrations of sp6BY were incubated with rIDE for 10 min at 37°C. The velocities were calculated from the degradation of sp6BY and normalized for the amount of rIDE. Data points represent values from three independent experiments in a double-reciprocal Lineweaver-Burk plot.
Fig 8 Generation of stable p6 mutants. […] Reactions were stopped by adjusting the samples to 0.3% (w/v) […] and subsequently analyzed by mass spectrometry. Arrows above the primary sequence represent the detected cleavage sites, and initial and secondary cleavage sites are indicated as big or small arrows, respectively. […] (C) 10 ng of sp6BY were incubated with 250 μg/ml sp6 wt, 2xPTAPPA, 3xPTAPPA or only buffer and 5 μg S10 for 30 min at 37°C. sp6BY was detected by fluorescence emission and quantified. […]
Typically 5 μg S10 were incubated with inhibitor or buffer and 20–100 ng sp6 at 37°C for 30 min. […] Remaining p6 was detected by Western blotting using an anti-p6 rabbit antiserum. […] In some experiments the amount of p6 was densitometrically quantified with the software AIDA (Raytest). […]

T1 sequence (P35559 whole entry): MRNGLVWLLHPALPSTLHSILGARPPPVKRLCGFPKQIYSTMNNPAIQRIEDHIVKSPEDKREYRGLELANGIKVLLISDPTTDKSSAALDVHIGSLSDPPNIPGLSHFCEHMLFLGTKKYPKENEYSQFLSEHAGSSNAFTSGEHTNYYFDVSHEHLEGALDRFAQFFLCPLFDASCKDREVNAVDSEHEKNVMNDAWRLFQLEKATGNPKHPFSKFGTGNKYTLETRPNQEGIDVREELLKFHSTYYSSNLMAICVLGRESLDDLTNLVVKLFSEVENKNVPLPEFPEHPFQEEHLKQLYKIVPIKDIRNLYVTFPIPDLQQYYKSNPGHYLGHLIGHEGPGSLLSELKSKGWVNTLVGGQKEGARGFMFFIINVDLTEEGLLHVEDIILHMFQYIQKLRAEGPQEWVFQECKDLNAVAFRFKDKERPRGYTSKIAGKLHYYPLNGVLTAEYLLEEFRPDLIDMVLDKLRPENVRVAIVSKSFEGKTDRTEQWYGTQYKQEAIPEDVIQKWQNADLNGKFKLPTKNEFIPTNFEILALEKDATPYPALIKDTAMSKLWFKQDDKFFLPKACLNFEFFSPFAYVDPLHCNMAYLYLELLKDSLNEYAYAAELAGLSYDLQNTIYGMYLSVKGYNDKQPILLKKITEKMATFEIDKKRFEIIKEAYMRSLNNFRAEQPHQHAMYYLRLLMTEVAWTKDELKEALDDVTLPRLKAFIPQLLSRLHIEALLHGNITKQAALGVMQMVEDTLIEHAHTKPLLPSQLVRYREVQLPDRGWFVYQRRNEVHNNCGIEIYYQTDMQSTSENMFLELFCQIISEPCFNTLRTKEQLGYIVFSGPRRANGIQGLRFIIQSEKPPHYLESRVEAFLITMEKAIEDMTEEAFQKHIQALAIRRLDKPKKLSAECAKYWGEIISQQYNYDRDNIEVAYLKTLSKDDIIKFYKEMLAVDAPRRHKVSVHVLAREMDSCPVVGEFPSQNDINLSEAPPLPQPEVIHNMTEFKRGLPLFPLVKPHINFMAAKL

## insulin-FITC: recombinant FITC-labeled insulin (Sigma)
  amount of rIDE required to cleave with the same efficiency, relative to sp6: 100 fold
